Laboratory results as given in FireProtDB (doi:10.1021/bi5005975).
Residue numbers refer to the chain shown, from its start. “And” between values parts separate entries of the source, which are not always exact repeats. Identical values can stand only once.

B1: wild type, Q9NAV7 (protein)
chain: MGFKQDIATLRGDLRTYAQDIFLAFLNKYPDEKRNFKNYVGKSDQELKSMAKFGDHTEKVFNLMMEVADRATDCVPLASDASTLVQMKQHSGLTTGNFEKLFVALVEYMRASGQSFDSQSWDRFGKNLVSALSSAGMK
B2: wild type, Q9NAV8 (protein)
chain: B1 chain with L10I, K33R, N35Y, S82N, G92S

Conditions: Amphitrite ornata; pH 7; 20 °C; GdnHCl; UV?visible spectrophotometer; potassium phosphate 100 mM; transition: 2; reversible: yes; whole UniProt chain shown

Row | Protein | denaturant midpoint (higher = more stable) | unfolding free energy
1 | B1 | 1.09 M | 9.25 kJ/mol

Same assay, conditions: Amphitrite ornata; pH 7; 20 °C; Urea; UV?visible spectrophotometer; potassium phosphate 100 mM; transition: 2; reversible: yes; whole UniProt chain shown

Row | Protein | denaturant midpoint (higher = more stable) | unfolding free energy
2 | B1 | 4.12 M | 10.1 kJ/mol

Same assay, conditions: Amphitrite ornata; pH 7; Thermal; DSC; degassed buffer (potassium phosphate) 100 mM; transition: 2; reversible: yes; whole UniProt chain shown

Row | Protein | Tm | unfolding enthalpy (calorimetric) | unfolding enthalpy (van 't Hoff)
3 | B1 | 47.7 °C and 48.6 °C | 691 kJ/mol and 695 kJ/mol | 1400 kJ/mol and 1660 kJ/mol
4 | B2 | 50.5 °C and 49.8 °C | 767 kJ/mol and 682 kJ/mol | 1610 kJ/mol and 1720 kJ/mol

Same assay, conditions: Amphitrite ornata; pH 7; Thermal; UV?visible spectrophotometer; potassium phosphate 100 mM; transition: 2; reversible: yes; whole UniProt chain shown

Row | Protein | Tm
5 | B1 | 46 °C
